Experiments:
MCF-7 cells = assay: Cell cycle analysis of MCF-7 cells (propidium iodide, flow cytometry); type: cell-based, human; conditions: IGF-I 20 ng/mL with or without EM164 20 μg/mL, 1 day
Method: The EM164 antibody caused growth arrest of cells in G0/G1 phase of cell cycle and abrogated the mitogenic effect of IGF-I. For cell cycle analysis, MCF-7 cells were treated with IGF-I (20 ng/mL) in the presence or absence of EM164 (20 μg/mL) for 1 day and then analyzed by propidium iodide staining and flow cytometry.

[1] = tested on: insulin receptor substrate-1 (IRS-1); assay: IGF-I-stimulated IRS-1 phosphorylation in MCF-7 cells (ELISA, associated p85 PI-3-kinase); type: cell-based, human
Method: In FIG. 5, MCF-7 cells were treated with 5 μg/mL antibody (EM164 or IR3) in serum-free medium for 2 h, followed by stimulation with 50 ng/mL IGF-I for 10 min at 37° C. Anti-IRS-1 antibody (rabbit polyclonal; Upstate Biotechnology) was indirectly captured by incubation with coated goat-anti-rabbit-IgG antibody on an ELISA plate, which was then used to capture IRS-1 from the cell lysate samples by overnight incubation at 4° C. The wells were then incubated with mouse monoclonal anti-p85-PI-3-kinase antibody (Upstate Biotechnology) for 4 h, followed by treatment with goat-anti-mouse-IgG-antibody-HRP conjugate for 30 min. The wells were then washed and detected using ABTS/H2O2 substrate (FIG. 5).

human IGF-I receptor = assay: FACS binding to cells overexpressing human IGF-I receptor; conditions: EM164 50-100 nM
Method: Incubation of EM164 antibody (50-100 nM) in 100 μL cold FACS buffer (1 mg/mL BSA in Dulbecco's MEM medium) was performed using cells overexpressing IGF-I receptor and using cells overexpressing insulin receptor (2×10^5 cells/mL) in a round-bottom 96-well plate for 1 h. The cells were pelleted by centrifugation and washed with cold FACS buffer by gentle flicking, followed by incubation with goat-anti-mouse-IgG-antibody-FITC conjugate (100 μL; 10 μg/mL in FACS buffer) on ice for 1 h. The cells were pelleted, washed, and resuspended in 120 μL of 1% formaldehyde solution in PBS. The plate was analyzed using a FACSCalibur reader (BD Biosciences).

B1: EM164: murine anti-IGF-I receptor monoclonal antibody, IgG1 with kappa light chain, hybridoma ATCC PTA-4457; heavy SEQ ID NO:7, light SEQ ID NO:8 (antibody)
heavy: QVQLQQSGAELVKPGASVKLSCKASGYTFTSYWMHWVKQRPGQGLEWIGEINPSNGRTNYNEKFKRKATLTVDKSSSTAYMQLSSLTSEDSAVYYFARGRPDYYGSSKWYFDVWGAGTTVTVSS
light: DVLMTQTPLSLPVSLGDQASISCRSSQSIVHSNVNTYLEWYLQKPGQSPKLLIYKVSNRFSGVPDRFSGSGSGTDFTLRISRVEAEDLGIYYCFQGSHVPPTFGGGTKLEIKR
modifications: antibody heavy chain; antibody light chain
cells in the G0/G1 phase (MCF-7 cells): 77% | cells in the S phase (MCF-7 cells): 9% | inhibition of IGF-1-stimulated IRS-1 phosphorylation ([1]; 5 μg/mL antibody 2 h, 50 ng/mL IGF-I 10 min, compared with IR3): more effective | agonistic activity on IRS-1 phosphorylation ([1]; in the absence of IGF-I): did not show any agonistic activity | fluorescence shift (FACS) (human IGF-I receptor): strong fluorescence shift
